The source of these data is US20140087995A1 (published 2014).

T1: human amylin receptor (human, UniProt P30988 25-474; O60896 24-148, limits assumed)
T1 construct: whole, on cells; Calcitonin receptor plus RAMP-3 gives the amylin 3(a) receptor; membranes of Amylin 3(a)/CRE-luc cells were used; also called hAmylin-R; hAmylinR
T1 sequence (looked up) 1: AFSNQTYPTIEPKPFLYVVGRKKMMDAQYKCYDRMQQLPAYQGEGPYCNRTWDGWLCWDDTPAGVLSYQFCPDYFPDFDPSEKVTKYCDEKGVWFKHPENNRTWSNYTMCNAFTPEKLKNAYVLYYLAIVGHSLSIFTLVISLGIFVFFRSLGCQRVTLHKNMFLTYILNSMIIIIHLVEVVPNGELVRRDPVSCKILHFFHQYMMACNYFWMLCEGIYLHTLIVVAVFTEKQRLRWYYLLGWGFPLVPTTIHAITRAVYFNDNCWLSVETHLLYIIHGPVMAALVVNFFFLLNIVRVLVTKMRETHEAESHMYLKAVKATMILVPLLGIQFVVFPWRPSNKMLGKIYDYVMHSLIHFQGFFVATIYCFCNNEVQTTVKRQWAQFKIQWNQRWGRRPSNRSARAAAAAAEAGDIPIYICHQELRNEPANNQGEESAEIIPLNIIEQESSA
T1 sequence (looked up) 2: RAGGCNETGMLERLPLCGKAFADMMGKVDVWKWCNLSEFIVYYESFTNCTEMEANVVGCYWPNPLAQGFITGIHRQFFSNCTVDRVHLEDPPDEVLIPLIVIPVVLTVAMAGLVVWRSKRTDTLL

B1: N^ε1-[2-[2-[2-[[(4S)-4-carboxy-4-(19-carboxynonadecanoylamino)butanoyl]amino]ethoxy]ethoxy]acetyl]-[Ser14,Arg17,Pro21,Pro27,Pro31]-h-amylin (peptide)
peptide: K([AEEA-γGlu-C20 diacid])CNTATCATQRLASFLRHSSPNFGAIPSSTPVGSNTY-NH2
modifications: disulfide 2-7; N-terminus assumed
SMILES: CC[C@H](C)[C@H](NC(=O)[C@H](C)NC(=O)CNC(=O)[C@H](Cc1ccccc1)NC(=O)[C@H](CC(N)=O)NC(=O)[C@@H]1CCCN1C(=O)[C@H](CO)NC(=O)[C@H](CO)NC(=O)[C@H](Cc1c[nH]cn1)NC(=O)[C@H](CCCNC(=N)N)NC(=O)[C@H](CC(C)C)NC(=O)[C@H](Cc1ccccc1)NC(=O)[C@H](CO)NC(=O)[C@H](C)NC(=O)[C@H](CC(C)C)NC(=O)[C@H](CCCNC(=N)N)NC(=O)[C@H](CCC(N)=O)NC(=O)[C@@H](NC(=O)[C@H](C)NC(=O)[C@@H]1CSSC[C@H](NC(=O)[C@@H](N)CCCCNC(=O)COCCOCCNC(=O)CC[C@H](NC(=O)CCCCCCCCCCCCCCCCCCC(=O)O)C(=O)O)C(=O)N[C@@H](CC(N)=O)C(=O)N[C@@H]([C@@H](C)O)C(=O)N[C@@H](C)C(=O)N[C@@H]([C@@H](C)O)C(=O)N1)[C@@H](C)O)C(=O)N1CCC[C@H]1C(=O)N[C@@H](CO)C(=O)N[C@@H](CO)C(=O)N[C@H](C(=O)N1CCC[C@H]1C(=O)N[C@H](C(=O)NCC(=O)N[C@@H](CO)C(=O)N[C@@H](CC(N)=O)C(=O)N[C@H](C(=O)N[C@@H](Cc1ccc(O)cc1)C(N)=O)[C@@H](C)O)C(C)C)[C@@H](C)O
notes: also called 14S, 17R, 21P, 27P, 31P
B2: N^ε1-[(4S)-4-carboxy-4-(19-carboxynonadecanoylamino)butanoyl]-[Ala14,Arg17,Pro21,Pro27,His34]-h-amylin (peptide)
peptide: K([γGlu-C20 diacid])CNTATCATQRLAAFLRHSSPNFGAIPSSTNVGHNTY-NH2
modifications: disulfide 2-7; N-terminus assumed
SMILES: CC[C@H](C)[C@H](NC(=O)[C@H](C)NC(=O)CNC(=O)[C@H](Cc1ccccc1)NC(=O)[C@H](CC(N)=O)NC(=O)[C@@H]1CCCN1C(=O)[C@H](CO)NC(=O)[C@H](CO)NC(=O)[C@H](Cc1c[nH]cn1)NC(=O)[C@H](CCCNC(=N)N)NC(=O)[C@H](CC(C)C)NC(=O)[C@H](Cc1ccccc1)NC(=O)[C@H](C)NC(=O)[C@H](C)NC(=O)[C@H](CC(C)C)NC(=O)[C@H](CCCNC(=N)N)NC(=O)[C@H](CCC(N)=O)NC(=O)[C@@H](NC(=O)[C@H](C)NC(=O)[C@@H]1CSSC[C@H](NC(=O)[C@@H](N)CCCCNC(=O)CC[C@H](NC(=O)CCCCCCCCCCCCCCCCCCC(=O)O)C(=O)O)C(=O)N[C@@H](CC(N)=O)C(=O)N[C@@H]([C@@H](C)O)C(=O)N[C@@H](C)C(=O)N[C@@H]([C@@H](C)O)C(=O)N1)[C@@H](C)O)C(=O)N1CCC[C@H]1C(=O)N[C@@H](CO)C(=O)N[C@@H](CO)C(=O)N[C@H](C(=O)N[C@@H](CC(N)=O)C(=O)N[C@H](C(=O)NCC(=O)N[C@@H](Cc1c[nH]cn1)C(=O)N[C@@H](CC(N)=O)C(=O)N[C@H](C(=O)N[C@@H](Cc1ccc(O)cc1)C(N)=O)[C@@H](C)O)C(C)C)[C@@H](C)O
notes: also called 14A, 17R, 21P, 27P, 34H
B3: N^ε1-[(4S)-4-carboxy-4-(17-carboxyheptadecanoylamino)butanoyl]-[Arg17,Pro21,Pro27,His34]-h-amylin (peptide)
peptide: K([γGlu-C18 diacid])CNTATCATQRLANFLRHSSPNFGAIPSSTNVGHNTY-NH2
modifications: disulfide 2-7; N-terminus assumed
SMILES: CC[C@H](C)[C@H](NC(=O)[C@H](C)NC(=O)CNC(=O)[C@H](Cc1ccccc1)NC(=O)[C@H](CC(N)=O)NC(=O)[C@@H]1CCCN1C(=O)[C@H](CO)NC(=O)[C@H](CO)NC(=O)[C@H](Cc1c[nH]cn1)NC(=O)[C@H](CCCNC(=N)N)NC(=O)[C@H](CC(C)C)NC(=O)[C@H](Cc1ccccc1)NC(=O)[C@H](CC(N)=O)NC(=O)[C@H](C)NC(=O)[C@H](CC(C)C)NC(=O)[C@H](CCCNC(=N)N)NC(=O)[C@H](CCC(N)=O)NC(=O)[C@@H](NC(=O)[C@H](C)NC(=O)[C@@H]1CSSC[C@H](NC(=O)[C@@H](N)CCCCNC(=O)CC[C@H](NC(=O)CCCCCCCCCCCCCCCCC(=O)O)C(=O)O)C(=O)N[C@@H](CC(N)=O)C(=O)N[C@@H]([C@@H](C)O)C(=O)N[C@@H](C)C(=O)N[C@@H]([C@@H](C)O)C(=O)N1)[C@@H](C)O)C(=O)N1CCC[C@H]1C(=O)N[C@@H](CO)C(=O)N[C@@H](CO)C(=O)N[C@H](C(=O)N[C@@H](CC(N)=O)C(=O)N[C@H](C(=O)NCC(=O)N[C@@H](Cc1c[nH]cn1)C(=O)N[C@@H](CC(N)=O)C(=O)N[C@H](C(=O)N[C@@H](Cc1ccc(O)cc1)C(N)=O)[C@@H](C)O)C(C)C)[C@@H](C)O
notes: also called 17R, 21P, 27P, 34H
B4: N^ε1-[2-[2-[2-[[(4S)-4-carboxy-4-(19-carboxynonadecanoylamino)butanoyl]amino]ethoxy]ethoxy]acetyl]-[Thr14,Arg17,Pro21,Pro27,Pro31]-h-amylin (peptide)
peptide: K([AEEA-γGlu-C20 diacid])CNTATCATQRLATFLRHSSPNFGAIPSSTPVGSNTY-NH2
modifications: disulfide 2-7; N-terminus assumed
SMILES: CC[C@H](C)[C@H](NC(=O)[C@H](C)NC(=O)CNC(=O)[C@H](Cc1ccccc1)NC(=O)[C@H](CC(N)=O)NC(=O)[C@@H]1CCCN1C(=O)[C@H](CO)NC(=O)[C@H](CO)NC(=O)[C@H](Cc1c[nH]cn1)NC(=O)[C@H](CCCNC(=N)N)NC(=O)[C@H](CC(C)C)NC(=O)[C@H](Cc1ccccc1)NC(=O)[C@@H](NC(=O)[C@H](C)NC(=O)[C@H](CC(C)C)NC(=O)[C@H](CCCNC(=N)N)NC(=O)[C@H](CCC(N)=O)NC(=O)[C@@H](NC(=O)[C@H](C)NC(=O)[C@@H]1CSSC[C@H](NC(=O)[C@@H](N)CCCCNC(=O)COCCOCCNC(=O)CC[C@H](NC(=O)CCCCCCCCCCCCCCCCCCC(=O)O)C(=O)O)C(=O)N[C@@H](CC(N)=O)C(=O)N[C@@H]([C@@H](C)O)C(=O)N[C@@H](C)C(=O)N[C@@H]([C@@H](C)O)C(=O)N1)[C@@H](C)O)[C@@H](C)O)C(=O)N1CCC[C@H]1C(=O)N[C@@H](CO)C(=O)N[C@@H](CO)C(=O)N[C@H](C(=O)N1CCC[C@H]1C(=O)N[C@H](C(=O)NCC(=O)N[C@@H](CO)C(=O)N[C@@H](CC(N)=O)C(=O)N[C@H](C(=O)N[C@@H](Cc1ccc(O)cc1)C(N)=O)[C@@H](C)O)C(C)C)[C@@H](C)O
notes: also called 14T, 17R, 21P, 27P, 31P
B5: N^ε1-[(4S)-4-carboxy-4-(15-carboxypentadecanoylamino)butanoyl]-[Arg17,Pro21,Pro27,His34]-h-amylin (peptide)
peptide: K([γGlu-C16 diacid])CNTATCATQRLANFLRHSSPNFGAIPSSTNVGHNTY-NH2
modifications: disulfide 2-7; N-terminus assumed
SMILES: CC[C@H](C)[C@H](NC(=O)[C@H](C)NC(=O)CNC(=O)[C@H](Cc1ccccc1)NC(=O)[C@H](CC(N)=O)NC(=O)[C@@H]1CCCN1C(=O)[C@H](CO)NC(=O)[C@H](CO)NC(=O)[C@H](Cc1c[nH]cn1)NC(=O)[C@H](CCCNC(=N)N)NC(=O)[C@H](CC(C)C)NC(=O)[C@H](Cc1ccccc1)NC(=O)[C@H](CC(N)=O)NC(=O)[C@H](C)NC(=O)[C@H](CC(C)C)NC(=O)[C@H](CCCNC(=N)N)NC(=O)[C@H](CCC(N)=O)NC(=O)[C@@H](NC(=O)[C@H](C)NC(=O)[C@@H]1CSSC[C@H](NC(=O)[C@@H](N)CCCCNC(=O)CC[C@H](NC(=O)CCCCCCCCCCCCCCC(=O)O)C(=O)O)C(=O)N[C@@H](CC(N)=O)C(=O)N[C@@H]([C@@H](C)O)C(=O)N[C@@H](C)C(=O)N[C@@H]([C@@H](C)O)C(=O)N1)[C@@H](C)O)C(=O)N1CCC[C@H]1C(=O)N[C@@H](CO)C(=O)N[C@@H](CO)C(=O)N[C@H](C(=O)N[C@@H](CC(N)=O)C(=O)N[C@H](C(=O)NCC(=O)N[C@@H](Cc1c[nH]cn1)C(=O)N[C@@H](CC(N)=O)C(=O)N[C@H](C(=O)N[C@@H](Cc1ccc(O)cc1)C(N)=O)[C@@H](C)O)C(C)C)[C@@H](C)O
notes: as for B3

Numbered stars: 1 amine (or outer) side, 2 acyl side, 3 side chain; on linkers, the order of the positions; unused ones are H or OH. Bridge positions count the residues as written; N and C are the ends. Side chains are listed from the residue outwards. Ends that are not written are not given here. * marks the point of attachment. C20 diacid = O=C(O)CCCCCCCCCCCCCCCCCCC(=O)*; C18 diacid = O=C(O)CCCCCCCCCCCCCCCCC(=O)*; C16 diacid = O=C(O)CCCCCCCCCCCCCCC(=O)*; γGlu = O=C(O)[C@H](CCC(=O)[*:2])N[*:1]; AEEA = NCCOCCOCC(=O)O

This test deals with T1, human amylin receptor. Nature of the test: SPA competition binding, displacement of 125I-rat amylin from membranes with human amylin 3(a) receptor (Assay V). Summed up:
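Cell membranes were prepared by homogenisation in Na-HEPES/EDTA buffer, pH 7.4, and stored at −80° C. They were then coupled to SPA beads at 35 ng/μL final and exposed to compounds in assay buffer containing CaCl2, MgCl₂, OA and Tween20. After 120 min at 25° C, plates were counted and IC₅₀ derived.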
Background: In a radioligand displacement assay an active substance lowers the binding of a labelled ligand.
One may read the IC50 as the midpoint of a concentration-inhibition curve. Turning to B1, the IC50 was found to be 104 pM.

On to B2, for which the IC50 was determined as 176 pM.

B3 returned an IC50 of 382 pM.

As to B4, the IC50 worked out at 666 pM.

B5 showed a half-maximal inhibitory concentration (IC50) of 580 pM.
